The values that follow come from the supplement of paper PMC9170038.

Series [1] has as its system MS2 coat protein. The series is described as follows: apparent KD of MS2 coat protein, switch ON state; designed switch direction (-1 OFF switch, 1 ON switch): 1; higher = weaker reporter binding. The conditions noted are these: FMN input: 0 or 200 uM; Eterna round: R93 (includes R88 designs). In a few lines: (§1)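 Titration buffer: 100 mM Tris-HCl pH 7.5, 80 mM KCl, 4 mM MgCl2, without or with constant ligand. Designed RNA switches transcribed on-chip from Illumina sequencing clusters received SNAP-549-labelled MS2 coat protein in twofold steps from 0.7 or 1.5 nM to 3 µM. Apparent KD is the median per design of fits to normalised cluster binding curves.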

Series [2] relates to MS2 coat protein. The series can be described thus: apparent KD of MS2 coat protein, switch OFF state (with FMN for OFF switches, without FMN for ON switches); designed switch direction (-1 OFF switch, 1 ON switch): 1; higher = weaker reporter binding. The note with it: FMN input: 0 or 200 uM; Eterna round: R93 (includes R88 designs). In a few lines: as §1

Take “AAAAAAAAAAGUCAGGAUAUACAAAUUUUUACAUGAGGAUCACCCAUGUUAAGGAAAAAAAAAAAGUAGAAGGGACAAAAAAAAAA [Same State 2 - Omei 3]”: the entries for the “apparent KD of MS2 coat protein” value in the series on MS2 coat protein [1] and in the series on MS2 coat protein [2] were 15.3 nM and 21.4 nM, respectively.
For “AAAAAAAAAAGUGAGGAUAUGGGAAAAUUAACAUGAGGAUCACCCAUGUGAUAAAAAAAAAAAAACCAGAAGGUACAAAAAAAAA [Original 73%, More Wateronthemoon, 1]”, in that order: 16 nM and 42.3 nM.
For “AAAAAAAAAAGUGAGGAUAUGGGAAAAUUAACAUGAGGAUCACCCAUGUGAUAAAAAAAAAAAAACCAGAAGGUACAAAAAAAAAA [Same 2]”, in that order: 26.1 nM and 35 nM.
Consider “AAAAAACAUGAGGAUCACCCAUGUAAAAAAACAUGAGGAUAUAUAAAAAAAAAAAAAAAGAUAGAAGGCAUAAAUA [JR_SS001_Sub1201]”, for which the “apparent KD of MS2 coat protein” value in the series with MS2 coat protein [1] was 128 nM; with MS2 coat protein [2], 77.4 nM.
For the sequence “AAAAAACAUGAGGAUCACCCAUGUAAAAAAAUCGCAGGAUAUACGGUCGCGAAAGCGACCGUAGAAGGGCGAUCCU [Louisiana 3 - Jieux - Same State 1]”, the “apparent KD of MS2 coat protein” value in the series with MS2 coat protein [1] came out at 59.1 nM; in the series with MS2 coat protein [2] it was 75.3 nM.
For “AAAAAACAUGAGGAUCACCCAUGUAAUAAAACGUCAGGAUAUUGAUUUUAUUAUUUAUUACAAGAAGGGACAAAAA [Same State 1 - Omei 1]”, in that order: 35 nM and 55 nM.
In the same order, the values of “AAAAAACAUGAGGAUCACCCAUGUAAUACAACAUCAGGAUAUUGAUUUUACUAUGUAUUGCAAGAAGGGAUGAAAA [Same State 1.3a (Same State 1 - Omei 2 )]” are 71.2 nM and 45.2 nM.
For “AAAAAACAUGAGGAUCACCCAUGUAGAAAUAUGGGAGGAUAUGGAAACACGAAAGUGAAACCAGAAGGCUCAAAAG [77%, Mat - Mod of Eli, 8]”, in that order: 26.6 nM and 69.5 nM.
For the sequence “AAAAAACAUGAGGAUCACCCAUGUCGAAAGACAUGAGGAUAUGUACAGACUUCGGUCUGUACAGAAGGCAUGAAAA [SS1 - 1012]”, the “apparent KD of MS2 coat protein” value with MS2 coat protein [1] worked out at 114 nM; in the series with MS2 coat protein [2], 79.3 nM.
In the same order, the values of “AAAAAACAUGAGGAUCACCCAUGUCUUCGGACGUGAGGAUAUGUACAGACUUCGGUCUGUACAGAAGGCAUGUAAA [SS1 - 1052]” are 286 nM and 186 nM.
As for “AAAAAAGAUCUAGAGGAUAUCCGAGUGGUAACAUGAGGAUCACCCAUGUGAAGAAAGGAACAUGAGGAGAAGGCUAGAUCAAAAA [JL Nando Mod 1]”, the “apparent KD of MS2 coat protein” value with MS2 coat protein [1] was found to be 7.87 nM; in the series on MS2 coat protein [2], 10.7 nM.
As for “AAAAAAUAAAAAAAGGAUAUAAUGCUACAGACAUGAGGAUCACCCAUGUAGGUAGCAAAAAUAAAAAAGAAGGAAAAAUAAAAAA [SS2: MS2 31]”, the “apparent KD of MS2 coat protein” value with MS2 coat protein [1] amounted to 11.4 nM; in the series with MS2 coat protein [2], 13.1 nM.
For “AAAAACGUGGCGUAGGAUAUACUAAUAUUCACAUGAGGAUCACCCAUGUUCAUAUAUAUGAACGAGUAGAAGGACGACGAAAAAA [Mat - Same state - Malcolm Mod - D106]”, in that order: 29.5 nM and 107 nM.
As for “AAAACACAUGAGGAUCACCCAUGUAGAAAUACGGGAGGAUAUGCGAAAACGAAAGACAAAGCAGAAGGCCUAAAAG [saturn 6]”, the “apparent KD of MS2 coat protein” value with MS2 coat protein [1] was determined as 12.3 nM; with MS2 coat protein [2], 35 nM.
For “AAAACACAUGAGGAUCACCCAUGUGCAAAAUUCGCAGGAUAUUCCUCAAUUAAAUGAAAGGAAGAAGGGUGAUAAA [Nob's Hobby 32 - Jieux - Same State 1]”, in that order: 17.8 nM and 50.2 nM.
As to “AAAAGACAUGAGGAUCACCCAUGUAAAAACAUAGGAGGAUAUGUCUUGAAAAAAGACUUGACAGAAGGCCUUUGUC [SS1 - 52]”, the “apparent KD of MS2 coat protein” value was 39.5 nM in the series with MS2 coat protein [1] and 75.2 nM in the series with MS2 coat protein [2].
